Source: publication PMC4820614

Molecular target: T1, full-length rat TRPV2 (rat), Q9WUD2
T1 chain: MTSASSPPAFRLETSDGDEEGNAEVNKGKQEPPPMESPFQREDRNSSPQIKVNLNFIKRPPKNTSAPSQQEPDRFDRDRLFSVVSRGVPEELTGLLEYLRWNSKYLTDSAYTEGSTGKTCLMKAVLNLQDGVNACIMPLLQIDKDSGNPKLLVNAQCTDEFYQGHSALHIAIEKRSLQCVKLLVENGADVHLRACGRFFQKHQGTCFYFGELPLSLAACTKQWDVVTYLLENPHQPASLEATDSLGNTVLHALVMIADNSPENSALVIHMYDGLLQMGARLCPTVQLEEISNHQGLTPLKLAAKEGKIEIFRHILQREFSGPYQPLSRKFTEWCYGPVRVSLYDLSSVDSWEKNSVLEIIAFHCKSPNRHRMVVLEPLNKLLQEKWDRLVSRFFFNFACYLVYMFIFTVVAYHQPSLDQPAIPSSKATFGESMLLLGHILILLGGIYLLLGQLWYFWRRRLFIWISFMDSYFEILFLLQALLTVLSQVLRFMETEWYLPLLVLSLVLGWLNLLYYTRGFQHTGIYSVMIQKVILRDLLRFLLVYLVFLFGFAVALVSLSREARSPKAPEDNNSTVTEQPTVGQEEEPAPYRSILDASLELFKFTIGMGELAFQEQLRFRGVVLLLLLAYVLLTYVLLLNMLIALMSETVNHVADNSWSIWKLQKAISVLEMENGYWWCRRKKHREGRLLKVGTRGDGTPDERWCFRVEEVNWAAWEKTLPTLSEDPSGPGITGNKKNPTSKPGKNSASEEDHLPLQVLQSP
Assay: cryo-EM structure; single particle cryo-EM of purified rat TRPV2 without ligand, 2.5 mg/ml, in decyl MNG, 150 mM NaCl, 20 mM HEPES pH 8.0, 1.0 mM DTT; no added lipids
Details: remark: other sources report otherwise

stoichiometry N: 4
B1: full-length rat TRPV2, Q9WUD2 1-761 (natural protein)
chain: MTSASSPPAFRLETSDGDEEGNAEVNKGKQEPPPMESPFQREDRNSSPQIKVNLNFIKRPPKNTSAPSQQEPDRFDRDRLFSVVSRGVPEELTGLLEYLRWNSKYLTDSAYTEGSTGKTCLMKAVLNLQDGVNACIMPLLQIDKDSGNPKLLVNAQCTDEFYQGHSALHIAIEKRSLQCVKLLVENGADVHLRACGRFFQKHQGTCFYFGELPLSLAACTKQWDVVTYLLENPHQPASLEATDSLGNTVLHALVMIADNSPENSALVIHMYDGLLQMGARLCPTVQLEEISNHQGLTPLKLAAKEGKIEIFRHILQREFSGPYQPLSRKFTEWCYGPVRVSLYDLSSVDSWEKNSVLEIIAFHCKSPNRHRMVVLEPLNKLLQEKWDRLVSRFFFNFACYLVYMFIFTVVAYHQPSLDQPAIPSSKATFGESMLLLGHILILLGGIYLLLGQLWYFWRRRLFIWISFMDSYFEILFLLQALLTVLSQVLRFMETEWYLPLLVLSLVLGWLNLLYYTRGFQHTGIYSVMIQKVILRDLLRFLLVYLVFLFGFAVALVSLSREARSPKAPEDNNSTVTEQPTVGQEEEPAPYRSILDASLELFKFTIGMGELAFQEQLRFRGVVLLLLLAYVLLTYVLLLNMLIALMSETVNHVADNSWSIWKLQKAISVLEMENGYWWCRRKKHREGRLLKVGTRGDGTPDERWCFRVEEVNWAAWEKTLPTLSEDPSGPGITGNKKNPTSKPGKNSASEEDHLPLQVLQSP
